The source of these data is article PMC5784833 (Journal of the American Chemical Society, 2017).

This series relates to CC(=O)Oc1ccc([N+](=O)[O-])cc1. Put plainly: purified protein.

As for “carbonic anhydrase II (CA-II) (Homo sapiens)”, the Km was 2520 ± 260 µM.
